Drawing on the Immune Epitope Database (IEDB), this text covers Kd and IC50 for 34 sequences.

Assay [1] deals with HLA-B*57:01. Description: IEDB peptide-MHC binding, purified MHC/competitive/radioactivity; filed as Kd, often an IC50 or EC50 that approximates it; ≥ and ≤ were set here for values at or beyond the usual limits of such assays.
The target of assay [2] is HLA-B*58:01. The description is as above.
The target in assay [3] is HLA-A*03:01. Description: IEDB peptide-MHC binding, purified MHC/competitive/fluorescence; ≥ and ≤ were set here for values at or beyond the usual limits of such assays.
In assay [4] the target is HLA-A*11:01. The description is as above.
Assay [5] deals with HLA-A*32:01. Description: IEDB peptide-MHC binding, purified MHC/competitive/radioactivity; filed as Kd, often an IC50 or EC50 that approximates it; ≥ and ≤ were set here for values at or beyond the usual limits of such assays.
Assay [6] addresses HLA-B*57:01. The assay is described as follows: IEDB peptide-MHC binding, purified MHC/direct/fluorescence; filed as Kd, often an IC50 or EC50 that approximates it; ≥ and ≤ were set here for values at or beyond the usual limits of such assays. The conditions noted are these: source organism: Yellow fever virus.
The target in assay [7] is HLA-B*15:17. Described as above. The conditions noted are these: source organism: Yellow fever virus.
Assay [8] concerns the target HLA-A*02:01. Description: IEDB peptide-MHC binding, purified MHC/competitive/fluorescence; ≥ and ≤ were set here for values at or beyond the usual limits of such assays.
Assay [9] has as its target HLA-B*15:01. Described as above.
Assay [10] addresses HLA-B*51:01. The assay is described as follows: IEDB peptide-MHC binding, purified MHC/direct/fluorescence; filed as Kd, often an IC50 or EC50 that approximates it; ≥ and ≤ were set here for values at or beyond the usual limits of such assays.
In assay [11] the target is HLA-B*07:02. The assay is described as above.
The target of assay [12] is HLA-B*15:01. The description is as above.
For assay [13], the target named is HLA-A*24:02. Description: IEDB peptide-MHC binding, purified MHC/competitive/fluorescence; ≥ and ≤ were set here for values at or beyond the usual limits of such assays.
The target in assay [14] is HLA-B*53:01. Description: IEDB peptide-MHC binding, purified MHC/competitive/radioactivity; filed as Kd, often an IC50 or EC50 that approximates it; ≥ and ≤ were set here for values at or beyond the usual limits of such assays. The note with it: source organism: Dengue virus 3 Martinique/1243/1999.
The target of assay [15] is HLA-A*24:02. Description: IEDB peptide-MHC binding, purified MHC/direct/fluorescence; filed as Kd, often an IC50 or EC50 that approximates it; ≥ and ≤ were set here for values at or beyond the usual limits of such assays.
For assay [16], the target named is HLA-B*44:02. The assay is described as above.
Assay [17] has as its target HLA-B*40:01. Described as above.
Assay [18] deals with HLA-A*01:01. The assay is described as above.
The target of assay [19] is HLA-A*03:01. The assay is described as above.
For assay [20], the target named is HLA-B*18:01. The assay is described as above.
For assay [21], the target named is HLA-A*02:01. The assay is described as above.
For assay [22], the target named is HLA-A*11:01. The assay is described as above.
The target of assay [23] is HLA-B*27:05. The assay is described as above.
The target of assay [24] is HLA-B*58:01. The description is as above.
Assay [25] concerns the target HLA-A*69:01. The assay is described as above.
Assay [26] addresses HLA-A*26:01. Described as above. The conditions noted are these: source organism: Yersinia pestis CA88-4125.
Assay [27] concerns the target HLA-A*31:01. The description is as above. The conditions noted are these: source organism: Yersinia pestis.
In assay [28] the target is HLA-B*46:01. The assay is described as above. The conditions noted are these: source organism: Yersinia pestis.
The target of assay [29] is HLA-B*08:02. The assay is described as above. The conditions noted are these: source organism: Vibrio parahaemolyticus AQ3810.
Assay [30] deals with HLA-A*24:02. The assay is described as follows: IEDB peptide-MHC binding, purified MHC/competitive/radioactivity; filed as Kd, often an IC50 or EC50 that approximates it; ≥ and ≤ were set here for values at or beyond the usual limits of such assays. The conditions noted are these: source organism: Dengue virus 3 Martinique/1243/1999.
The mark [31] stands for this setting: source organism: Dengue virus 1 Brazil/97-11/1997.
Setting [32] is: source organism: Zaire ebolavirus.
Setting [33] is: source organism: Dengue virus 3 Singapore/8120/1995.
The mark [34] stands for this setting: source organism: Dengue virus 4 Philippines/H241/1956.
Where [35] appears, read: source organism: Giardia lamblia ATCC 50803.
Setting [36] is: source organism: Dengue virus 2 Jamaica/1409/1983.
Where [37] appears, read: source organism: Dengue virus 3 Martinique/1243/1999.
The mark [38] stands for this setting: source organism: Escherichia coli O157:H7.
Setting [39] is: source organism: Yersinia pestis.
Where [40] appears, read: source organism: Sudan ebolavirus.
Where [41] appears, read: source organism: Vaccinia virus Copenhagen.
[42] abbreviates: source organism: Lassa virus Josiah.
The mark [43] stands for this setting: source organism: Bacillus anthracis.

Some results are limits rather than exact numbers.

The Kd is the free concentration of one partner at which half of the binding sites on the other are occupied at equilibrium, for simple one-to-one binding. The IC50 is the concentration that gives 50% inhibition. Read a high IC50 as a need for much substance.

As to CTSQILLMRT, the Kd in [1] (setting [31]) was 2.41 µM; in [2] (setting [31]) it was 17.1 µM.

As for PLARTAKVK, the values for the IC50 in assay [3] (setting [32]) and in assay [4] (setting [32]) were 4.15 µM and 48.4 µM, respectively.

KVMEITAEW: the Kd in [5] (setting [33]) came out at 0.0143 µM; in assay [1] (setting [33]), 0.0181 µM; in assay [2] (setting [33]), 0.00109 µM.

As for ESSSNPTIEE, the values for the Kd in assay [1] (setting [34]) and in assay [2] (setting [34]) were 2.32 µM and 9.49 µM, respectively.

Turning to ISNSVAQAR, the IC50 is at least 110 µM in assay [3] (setting [32]) and 49.2 µM in [4] (setting [32]).

Consider ESWIVDRQW, for which the Kd in assay [6] turned out to be 0.0195 µM; in assay [7], 0.135 µM.

As to AMNEENRFV, the IC50 in [8] (setting [32]) was 6.8 µM; in assay [9] (setting [32]), at least 220 µM.

For the sequence KLRSNALSL, the Kd in [10] (setting [35]) was at least 20 µM; in assay [11] (setting [35]), 0.008 µM; in assay [12] (setting [35]), 0.025 µM.

For the sequence KASFIEVKSC, the Kd in assay [1] (setting [36]) was 0.109 µM; in assay [2] (setting [36]), 0.37 µM.

For the sequence SASEAVNDSR, the Kd in [1] (setting [34]) was 1.39 µM; in assay [2] (setting [34]) it was 0.0401 µM.

As for FLPNPAFIH, the figures for the IC50 in assay [13] (source organism: Variola virus), in [8] (source organism: Variola virus) and in assay [9] (source organism: Variola virus) were 0.497 µM, 2.11 µM and 25.5 µM, respectively.

Take GATTETPTW: the results for the Kd in assay [1] (setting [37]), in assay [14] and in [2] (setting [37]) were 0.0804 µM, 0.0692 µM and 0.00208 µM, respectively.

In the case of KPKLKVATL, the Kd was at least 20 µM in assay [15] (setting [38]); at least 20 µM in assay [16] (setting [38]); at least 20 µM in assay [17] (setting [38]); at least 20 µM in assay [18] (setting [38]); at least 20 µM in [19] (setting [38]); 0.0674 µM in [11] (setting [38]). The Kd in assay [20] (setting [38]), in assay [21] (setting [38]), in [22] (setting [38]), in [23] (setting [38]), in assay [24] (setting [38]) and in assay [12] (setting [38]) was at least 20 µM each time. The same sequence returned a Kd in assay [25] (setting [38]) of at least 20 µM.

Turning to RVFNGDDVK, the Kd is at least 20 µM in assay [15] (setting [39]); at least 20 µM in assay [16] (setting [39]); at least 20 µM in assay [17] (setting [39]); at least 20 µM in assay [18] (setting [39]); 1.39 µM in assay [19] (setting [39]); at least 20 µM in assay [11] (setting [39]). For the same sequence, the Kd is at least 20 µM in [26]; at least 20 µM in assay [20] (setting [39]); at least 20 µM in [21] (setting [39]); 0.251 µM in assay [22] (setting [39]); at least 20 µM in assay [23] (setting [39]); at least 20 µM in assay [24] (setting [39]). The Kd in [12] (setting [39]) is at least 20 µM; in [25] (setting [39]), at least 20 µM; in assay [27], 4.2 µM; in [28] it was at least 20 µM.

With GILGSLGLR, the IC50 in assay [3] (setting [40]) is 15.2 µM; in assay [8] (setting [40]), 3.62 µM; in assay [4] (setting [40]), 3.84 µM.

Regarding PATLLVWHTW, the dissociation constant Kd is 3.67 µM in [5] (setting [37]), 1.39 µM in assay [1] (setting [37]) and 0.278 µM in assay [2] (setting [37]).

For RKAIDFLLR, the IC50 in assay [3] (setting [40]) is at least 212 µM.

Take TSSQQKADWI: the Kd is 2.59 µM in assay [1] (setting [36]) and 1.07 µM in [2] (setting [36]).

Turning to YFGPAAEGI, the IC50 is 0.253 µM in assay [13] (setting [32]), 60 µM in assay [8] (setting [32]) and at least 197 µM in [9] (setting [32]).

On to KILTAGLSV, for which the results for the half-inhibitory concentration (IC50) in assay [3] (setting [32]), in [8] (setting [32]) and in assay [4] (setting [32]) were 36.3 µM, 2.56 µM and at least 159 µM, respectively.

For PPDGVRGFP, the IC50 in assay [3] (setting [40]) is 67.1 µM; in [4] (setting [40]), 63.2 µM.

Turning to LQLFLRATT, the IC50 is at least 125 µM in assay [8] (setting [40]) and at least 91.4 µM in [9] (setting [40]).

Turning to IITPIVFYR, the IC50 in [13] (setting [41]) is 20.3 µM; in assay [3] (setting [41]), 1.49 µM; in assay [8] (setting [41]), at least 132 µM; in [4] (setting [41]), 0.263 µM.

Turning to ASPMLYQLL, the IC50 in assay [13] (setting [41]) stood at 0.233 µM; in [8] (setting [41]), 39.6 µM; in assay [9] (setting [41]), 37.2 µM.

For FGSLGGVFTS, the results for the Kd in assay [1] (setting [36]) and in assay [2] (setting [36]) were 2.18 µM and 5.33 µM, respectively.

LPTKLRPSA: the Kd in [10] (setting [42]) is at least 20 µM; in assay [11] (setting [42]), 0.103 µM.

RPQHVKKSA: the Kd was at least 20 µM in assay [10] (setting [43]), 0.0085 µM in assay [11] (setting [43]) and at least 20 µM in assay [12] (source organism: Bacillus cereus NVH0597-99).

Regarding GLITGGRRT, the IC50 in assay [13] (setting [32]) was 19 µM; in assay [3] (setting [32]), at least 141 µM; in [8] (setting [32]) it was 14.7 µM; in assay [4] (setting [32]), at least 99.4 µM.

As to HMQISTIGI, the values for the IC50 in assay [13] (setting [40]), in assay [8] (setting [40]) and in [9] (setting [40]) were 15.6 µM, 4.09 µM and 9.61 µM, respectively.

For KAIDFLLQR, the IC50 in assay [13] (setting [32]) was at least 161 µM; in [3] (setting [32]), 28.8 µM; in assay [8] (setting [32]), 9.59 µM; in assay [4] (setting [32]), 0.693 µM.

Consider KAKGSRAIW, for which the values for the Kd in assay [1] (setting [37]) and in assay [2] (setting [37]) were 0.0101 µM and 0.279 µM, respectively.

With FLRKHNEGL, the Kd in [29] was determined as 1.75 µM.

Turning to SLTESDMDY, the values for the IC50 in [8] (setting [32]) and in [9] (setting [32]) were at least 140 µM and 68.3 µM, respectively.

In the case of WMAEIPLQW, the Kd came to 0.174 µM in assay [30] and 0.0138 µM in assay [2] (setting [37]).
